Consider five molecules from patent publication US20240301056A1 (APITBIO, published 2024).

Where only a bound is given, the exact number is not on record here.

As a reminder, the Kd is a measure of binding affinity in units of concentration. Broadly, the koff is a measure of how fast the partners let go of each other. Lower therefore signals a long-lived complex. By kon is commonly meant a measure of how fast the partners come together. Low values mean slow association, high ones fast association.

Assay [1] addresses Human L1CAM (purified protein) (human) (UniProt P32004). Nature of the assay: BLI (Octet RED384), antibody captured on AHC sensor, human L1CAM in solution; upper end told of the variants as a group, tied to Ab4H5 by the KD values of the same paragraph (0.2 nM against 8 pM).
The target in assay [2] is T1, Mouse L1CAM on B16F1 cells (mouse, UniProt P11627 20-1260).
T1 construct: whole, on cells; also called mouse L1CAM-positive cells
T1 sequence (P11627 20-1260): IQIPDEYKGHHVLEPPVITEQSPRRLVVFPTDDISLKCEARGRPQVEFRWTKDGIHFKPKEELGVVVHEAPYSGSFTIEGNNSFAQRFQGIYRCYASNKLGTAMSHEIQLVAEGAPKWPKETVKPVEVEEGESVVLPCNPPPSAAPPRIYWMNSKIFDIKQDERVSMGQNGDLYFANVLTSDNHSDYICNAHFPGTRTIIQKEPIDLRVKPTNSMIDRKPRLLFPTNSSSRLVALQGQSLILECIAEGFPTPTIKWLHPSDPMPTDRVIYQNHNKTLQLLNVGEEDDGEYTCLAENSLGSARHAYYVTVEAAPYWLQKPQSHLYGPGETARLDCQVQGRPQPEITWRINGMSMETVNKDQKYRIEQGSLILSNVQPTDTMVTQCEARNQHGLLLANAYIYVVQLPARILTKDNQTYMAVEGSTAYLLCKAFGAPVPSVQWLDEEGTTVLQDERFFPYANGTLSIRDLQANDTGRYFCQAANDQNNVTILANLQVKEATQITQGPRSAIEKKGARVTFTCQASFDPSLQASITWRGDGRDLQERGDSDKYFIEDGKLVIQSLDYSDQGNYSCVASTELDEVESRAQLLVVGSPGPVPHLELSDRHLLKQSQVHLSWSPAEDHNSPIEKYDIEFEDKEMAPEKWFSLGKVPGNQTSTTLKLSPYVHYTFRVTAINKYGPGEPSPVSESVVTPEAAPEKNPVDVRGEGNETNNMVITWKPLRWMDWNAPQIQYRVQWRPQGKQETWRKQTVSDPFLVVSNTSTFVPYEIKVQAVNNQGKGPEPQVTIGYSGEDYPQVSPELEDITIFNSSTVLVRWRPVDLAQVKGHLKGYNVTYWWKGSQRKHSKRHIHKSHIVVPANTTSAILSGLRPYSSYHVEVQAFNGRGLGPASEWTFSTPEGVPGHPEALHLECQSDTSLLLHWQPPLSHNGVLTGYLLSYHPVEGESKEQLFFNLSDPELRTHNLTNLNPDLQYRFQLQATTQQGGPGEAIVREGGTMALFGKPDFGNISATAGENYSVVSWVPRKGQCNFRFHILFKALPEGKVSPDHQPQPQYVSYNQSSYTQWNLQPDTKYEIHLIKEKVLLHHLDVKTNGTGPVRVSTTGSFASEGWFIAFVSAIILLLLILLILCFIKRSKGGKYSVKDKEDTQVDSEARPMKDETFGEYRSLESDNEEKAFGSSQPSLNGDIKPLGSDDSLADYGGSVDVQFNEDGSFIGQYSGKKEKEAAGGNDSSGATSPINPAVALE
Description: flow cytometry on B16F1 cells, antibody 10 ug/ml, FITC anti-human IgG Fc secondary. As to the method: In order to examine whether the variant antibodies selectively bind to human and mouse L1CAM, flow cytometry was performed using various types of cells. In this regard, as a comparative antibody, the Ab417 antibody which binds to human L1 CAM and mouse L1 CAM was used.
CHO-DG44 (ATCC No. PTA-3356) cells that are known to express no human L1CAM were cultured and used as a negative control. Also, cells expressing human L1CAM, human ovarian carcinoma, SKOV3 (ATCC No. HTB-77) and human non-small cell lung carcinoma, NCI-H522 (AYCC NO. CRL-5810) were cultured. As cells expressing mouse L1CAM, a melanoma cell line, B16F1 (ATCC No. CRL-6323) was cultured. The cultured cells were harvested using a dissociation buffer or 0.05% trypsin (GIBCO) for CHO-DG44 cell, resuspended in 1% PBA solution, and placed on ice for 20 minutes. The cells were then added to round bottom polystyrene test tube (Falcon) at a density of 4×10⁵ cells per tube. The purified antibodies were diluted in PBA solution at a concentration of 10 ug/ml, and 100 μl was added to each tube and mixed well. The tubes were placed in 4° C. for 1 hour. The secondary antibody which specifically binds to the Fc region of human IgG and is covalently linked with FITC (Sigma) was added to each tube at a ratio of 1:2000. The plate was wrapped with foil to block light and allowed to react at 4° C. for 1 hour. A staining reagent PI (propidium iodide, Sigma) was added at a ratio of 1:200 to evaluate cell viability. After all reactions were completed, FITC and PI fluorescent signals were detected in the cells.
(In flow cytometry, cells or beads pass a laser one at a time.)

Assay [3] addresses Human L1CAM (purified protein) (human) (UniProt P32004). Nature of the assay: competitive ELISA; antibody pre-incubated with soluble human L1CAM, free antibody detected on coated human L1CAM.
The target is the same in assay [4]. Nature of the assay: BLI, Octet RED384; antibody captured on AHC sensor, human L1CAM 50-0.78 nM as analyte. (In general: Biolayer interferometry detects binding as a change in optical thickness at a sensor tip.)
Assay [5] shares this target. Nature of the assay: competitive ELISA; lower end of the range, tied to Ab612 by Table 9. (In general: An ELISA detects its analyte on a solid surface through an enzyme-linked reagent.)
For assay [6] the target is unchanged. Nature of the assay: competitive ELISA; upper end of the range, tied to Ab2C2 by Table 9.

B1: Ab4H5 antibody (antibody, human IgG1, kappa, V domains shown)
VH: EVQLVESGGGVVQPGGSLRLSCAASGFTFSRFGMHWVRQAPGKGLEWVAFISNEGSNKYYADSVKGRFTISRDNSANTLYLQMNSLRAEDTAVYYCARGRAYGSGSLFDPWGQGTLVTVSS
VL: DIQLTQSPSSLSASVGDRVTITCRASRTISSYVNWYRQRPGKAPESLIYAASNLHSGVPSRFSGSGSGTDFTLTISSLQPEDFATYYCQQAGFYTPWTFGQGTKLEIKR
notes: Whole human IgG1, kappa; also called Anti-L1CAM ("Ab4H5"); Ab4H5 mutant
As to B1, in assay [1], the fold increased affinity compared to Ab417 turned out to be 25 fold. For the same molecule, in assay [2], the binding result is “binds”. The molecule further displayed an Affinity (K) in assay [3] of 60 pM. Further, in assay [4], the Kd amounted to 0.00822 nM, the koff was 2.98e-06 s⁻¹ and the association rate constant (kon) was 363000 M⁻¹ s⁻¹.

B2: Ab5D12 antibody (antibody, human IgG1, kappa, V domains shown)
VH: EVQLVESGGGVVQPGGSLRLSCAASGFTFSRFGMHWVRQAPGKGLEWVAFISNEGSNKYYADSVKGRFTISRDNSANTLYLQMNSLRAEDTAVYYCARGRAYGSGSLFDPWGQGTLVTVSS
VL: DIQLTQSPSSLSASVGDRVTITCRASRTISSYVNWYRQRPGKAPESLIYAASNLHSGVPSRFSGSGSGTDFTLTISSLQPEDFATYYCQQSLVWYPWTFGQGTKLEIKR
notes: Whole human IgG1, kappa; also called Anti-L1CAM ("Ab5D12"); Ab5D12 mutant
Regarding B2, in assay [2], the binding result is “binds”. For the same molecule, the Affinity (K) in assay [3] was 120 pM. For the same molecule, in assay [4], the equilibrium dissociation constant (Kd) amounted to 0.096 nM, the koff is 3.94e-05 s⁻¹ and the kon was determined as 411000 M⁻¹ s⁻¹.

B3: Ab612 antibody (antibody, human IgG1, kappa, V domains shown)
VH: EVQLVESGGGVVQPGGSLRLSCAASGFTFSRFGMHWVRQAPGKGLEWVAFISNEGSNKYYADSVKGRFTISRDNSANTLYLQMNSLRAEDTAVYYCARGRAYGSGSLFDPWGQGTLVTVSS
VL: DIQLTQSPSSLSASVGDRVTITCRASRTISSYVNWYRQRPGKAPESLIYAASNLHSGVPSRFSGSGSGTDFTLTISSLQPEDFATYYCQQSIGRGPVTFGQGTKLEIKR
notes: Whole human IgG1, kappa, purified on protein A; also called Anti-L1CAM ("Ab612")
B3: the binding result in assay [2] is “binds”. For the same molecule, in assay [5], the fold higher binding affinity than Ab417 fell in the range of 2 to 10 fold. The same molecule showed an Affinity (K) in assay [3] of 260 pM. In assay [4], this molecule displayed a Kd of 0.105 nM, a koff of 3.28e-05 s⁻¹ and a kon of 313000 M⁻¹ s⁻¹.

B4: Ab4H6 antibody (antibody, human IgG1, kappa, V domains shown)
VH: EVQLVESGGGVVQPGGSLRLSCAASGFTFSRFGMHWVRQAPGKGLEWVAFISNEGSNKYYADSVKGRFTISRDNSANTLYLQMNSLRAEDTAVYYCARGRAYGSGSLFDPWGQGTLVTVSS
VL: DIQLTQSPSSLSASVGDRVTITCRASRTISSYVNWYRQRPGKAPESLIYAASNLHSGVPSRFSGSGSGTDFTLTISSLQPEDFATYYCQQSLHFYPWTFGQGTKLEIKR
notes: Whole human IgG1, kappa; also called Anti-L1CAM ("Ab4H6"); Ab4H6 mutant
Take B4: in assay [2], the binding result is reported as “binds”. Further, in assay [3], the Affinity (K) was 60 pM. Besides, in assay [4], the Kd came out at 0.0741 nM, the koff came to 2.77e-05 s⁻¹ and the kon amounted to 373000 M⁻¹ s⁻¹.

B5: Ab2C2 antibody (antibody, human IgG1, kappa, V domains shown)
VH: EVQLVESGGGVVQPGGSLRLSCAASGFTFSRFGMHWVRQAPGKGLEWVAFISNEGSNKYYADSVKGRFTISRDNSANTLYLQMNSLRAEDTAVYYCARGRAYGSGSLFDPWGQGTLVTVSS
VL: DIQLTQSPSSLSASVGDRVTITCRASRTISSYVNWYRQRPGKAPESLIYAASNLHSGVPSRFSGSGSGTDFTLTISSLQPEDFATYYCQQAGFYSPWTFGQGTKLEIKR
notes: Whole human IgG1, kappa; also called Anti-L1CAM ("Ab2C2"); Ab2C2 mutant
In the case of B5, the binding result in assay [2] is “binds”. Also, the fold higher binding affinity than Ab417 in assay [6] lay in the range of 2 to 10 fold. This molecule came in with an Affinity (K) in assay [3] of 50 pM. In addition, in assay [4], the Kd is < 0.001 nM, the koff was < 1e-07 s⁻¹ and the kon came to 344000 M⁻¹ s⁻¹.
